In paper PMC4263446 (Molecular Biology of the Cell, 2014):

Target: the molecule itself
Test: non-reducing SDS-PAGE

B1: Flag-CD73L (canonical ecto-5′-nucleotidase, long protein isoform of CD73) (enzyme, human, UniProt P21589-1 27-549, looked up)
chain: WELTILHTNDVHSRLEQTSEDSSKCVNASRCMGGVARLFTKVQQIRRAEPNVLLLDAGDQYQGTIWFTVYKGAEVAHFMNALRYDAMALGNHEFDNGVEGLIEPLLKEAKFPILSANIKAKGPLASQISGLYLPYKVLPVGDEVVGIVGYTSKETPFLSNPGTNLVFEDEITALQPEVDKLKTLNVNKIIALGHSGFEMDKLIAQKVRGVDVVVGGHSNTFLYTGNPPSKEVPAGKYPFIVTSDDGRKVPVVQAYAFGKYLGYLKIEFDERGNVISSHGNPILLNSSIPEDPSIKADINKWRIKLDNYSTQELGKTIVYLDGSSQSCRFRECNMGNLICDAMINNNLRHTDEMFWNHVSMCILNGGGIRSPIDERNNGTITWENLAAVLPFGGTFDLVQLKGSTLKKAFEHSVHRYGQSTGEFLQVGGIHVVYDLSRKPGDRVVKLDVLCTKCRVPSYDPLKMDEVYKVILPNFLANGGDGFQMIKDELLRHDSGDQDINVVSTYISKMKVIYPAVEGRIKFS
modifications: glycosylated (Asn-311/333/403)
stoichiometry N: 2
